The text below walks through data of patent US20230332164A1 (SYNLOGIC OPERATING, published 2023).

B1: anti-mCD47 scFv, secreted by SYN3161 (scFv)
scFv: QVKLLQSGAALVKPGASVKMSCQASGYSFTDYWVTWVKQSHGQSLEWIGEIYPSNTVTNFNDNFKGKATLTVDKSTSTAYMELSRLTSEDSAIYYCTRIGNSGYRVGWFIYWGQGTLVTVLSGGGGSGGGGSGGGGSDTVLTQSPALAVSPGERVTISCKASESVSSHMHWYQQKPGQQPKLLIYKASNLASGVPARFSGSGSGTDFTLTIDPVEADDTATYFCQQGWNGPFTFGAGTRLELKRADAAGSGELGGSGKPIPNPLLGLDSTGSGHHHHHH
B2: mCD40L2 (112-260), secreted by SYN3367 (ligand)
chain: VDYKDDDDKQLGGGMQRGDEDPQIAAHVVSEANSNAASVLQWAKKGYYTMKSNLVMLENGKQLTVKREGLYYVYTQVTFCSNREPSSQRPFIVGLWLKPSSGSERILLKAANTHSSSQLCEQQSVHLGGVFELQAGASVFVNVTEASQVIHRVGFSSFGLLKLKGELNSKLEGKPIPNPLLGLDSTDPNSSSVDHHHHHH
B3: mCV1SIRPα, secreted by SYN3159 (receptor)
chain: VDYKDDDDKQLGGSEEELQIIQPDKSVLVAAGETATLRCTITSLFPVGPIQWFRGAGPGRVLIYNQRQGPFPRVTTVSDTTKRNNMDFSIRIGNITPADAGTYYCIKFRKGSPDDVEFKSGAGTELSVRAKPSGSGELGGSGKPIPNPLLGLDSTGSGHHHHHH
notes: also called PhoA-FLAG-CV1sirpα-V5-HIS
B4: mCD40L1 (47-260), secreted by SYN3366 (ligand)
chain: VDYKDDDDKQLGGGHRRLDKVEEEVNLHEDFVFIKKLKRCNKGEGSLSLLNCEEMRRQFEDLVKDITLNKEEKKENSFEMQRGDEDPQIAAHVVSEANSNAASVLQWAKKGYYTMKSNLVMLENGKQLTVKREGLYYVYTQVTFCSNREPSSQRPFIVGLWLKPSSGSERILLKAANTHSSSQLCEQQSVHLGGVFELQAGASVFVNVTEASQVIHRVGFSSFGLLKLKGELNSKLEGKPIPNPLLGLDSTDPNSSSVDHHHHHH
B5: WT mSIRPα (32-373), secreted by SYN2996 (receptor)
chain: VDYKDDDDKQLGGGKELKVTQPEKSVSVAAGDSTVLNCTLTSLLPVGPIKWYRGVGQSRLLIYSFTGEHFPRVTNVSDATKRNNMDFSIRISNVTPEDAGTYYCVKFQKGPSEPDTEIQSGGGTEVYVLAKPSPPEVSGPADRGIPDQKVNFTCKSHGFSPRNITLKWFKDGQELHHLETTVNPSGKNVSYNISSTVRVVLNSMDVHSKVICEVAHITLDRSPLRGIANLSNFIRVSPTVKVTQQSPTSMNQVNLTCRAERFYPEDLQLIWLENGNVSRNDTPKNLTKNTDGTYNYTSLFLVNSSAHREDVVFTCQVKHDQQPAITRNHTVLGLAHSSDQGSMQTFPGNNATHNWNKGELNSKLEGKPIPNPLLGLDSTDPNSSSVDHHHHHH
B6: CD47 on mouse CT26 cells (receptor, UniProt Q61735 19-303, looked up)
chain: QLLFSNVNSIEFTSCNETVVIPCIVRNVEAQSTEEMFVKWKLNKSYIFIYDGNKNSTTTDQNFTSAKISVSDLINGIASLKMDKRDAMVGNYTCEVTELSREGKTVIELKNRTVSWFSPNEKILIVIFPILAILLFWGKFGILTLKYKSSHTNKRIILLLVAGLVLTVIVVVGAILLIPGEKPVKNASGLGLIVISTGILILLQYNVFMTAFGMTSFTIAILITQVLGYVLALVGLCLCIMACEPVHGPLLISGLGIIALAELLGLVYMKFVASNQRTIQPPRNR
notes: whole, on cells; also called CD47 on CT26 cells; murine CD47 on CT26 cells
B7: mFD6x2SIRPα, secreted by SYN3160 (receptor)
chain: VDYKDDDDKQLGGSEEEVQIIQPDKSVSVAAGESAILHCTITSLFPVGPIQWFRGAGPARVLIYNQRQGPFPRVTTISETTRRENMDFSISISNITPADAGTYYCIKFRKGSPDTEFKSGAGTELSVRAKPSGGGGSGGGGSEEEVQIIQPDKSVSVAAGESAILHCTITSLFPVGPIQWFRGAGPARVLIYNQRQGPFPRVTTISETTRRENMDFSISISNITPADAGTYYCIKFRKGSPDTEFKSGAGTELSVRAKPSGSGELGGSGKPIPNPLLGLDSTGSGHHHHHH
notes: also called mFD62xSIRPα; FD1x2SIRPα

In assay [1] the target is IgG (control coating). The assay is described as follows: ELISA, IgG-coated plate, bacterial supernatant.
The target of assay [2] is IgG (control coating). The assay is described as follows: ELISA, IgG-coated plate, clarified bacterial supernatant.
The target of the assay “CD47 on mouse CT26 cells” is B6. Nature of the assay: flow cytometry on CT26 cells, 10x concentrated supernatant. (In flow cytometry, cells or beads pass a laser one at a time.)
In assay [3] the target is T1, recombinant SIRPα (Rndsystems) (mouse, UniProt P97797 32-373, limits assumed).
T1 construct: also called recombinant SIRPalpha; recombinant mSIRPα
T1 sequence (looked up): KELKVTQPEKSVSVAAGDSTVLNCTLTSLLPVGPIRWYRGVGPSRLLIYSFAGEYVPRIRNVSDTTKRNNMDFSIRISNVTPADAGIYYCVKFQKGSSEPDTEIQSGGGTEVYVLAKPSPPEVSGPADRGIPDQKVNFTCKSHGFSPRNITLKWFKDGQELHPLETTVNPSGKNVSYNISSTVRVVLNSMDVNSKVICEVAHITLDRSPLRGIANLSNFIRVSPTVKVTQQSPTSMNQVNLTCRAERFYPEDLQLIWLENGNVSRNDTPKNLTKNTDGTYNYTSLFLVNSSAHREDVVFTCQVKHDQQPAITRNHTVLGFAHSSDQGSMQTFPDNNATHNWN
The assay is described as follows: competition flow cytometry on CT26 cells.
Protocol: Cells were spun down, supernatant was aspirated, pellet was resuspended in 1 ml D-PBS, transferred into chilled assay tubes (1×10\hat{ }6 cells), and washed 3 times in D-PBS. Cells were resuspended in D-PBS with 0.5% BSA, to which the 10 jut of the supernatant (10× concentrated) were added and incubated for 1 hour at 4 C. Supernatant from SYN1557 was used as a baseline negative control. Cells were then resuspended in 0.5 ml PBS, diluted to proper concentration and analyzed on a flow cytometer.

Take B1: the ELISA signal (unit not given) with IgG (control coating) [1] came out at 0.067. With B2, in the assay with IgG (control coating) [2], the ELISA signal (unit not given) amounted to 0.052.

On to B3, for which the binding result with CD47 on mouse CT26 cells is “binds”. As to B4, the ELISA signal (unit not given) in the assay with IgG (control coating) [2] was determined as 0.052. Regarding B5, in the assay with IgG (control coating) [1], the ELISA signal (unit not given) is 0.056. As for B6, the binding result in assay [3] is recorded as “binds”.

As for B7, the binding result in the assay with CD47 on mouse CT26 cells is on record as “binds”.
